Each substance was assayed against T1, rCRISPA (rCRISP1) (Rattus norvegicus, UniProt P12020) (assay: Protease activity screen: cleavage of substrate peptides by native rCRISPA (+DANA protocol), measured by fluorescence). Settings: 5 μM substrate peptide, 1 μg enzyme, 100 mM NaCl, 25 mM Tris-Cl, pH 7.5; fluorescence at ten minute intervals for 130 minutes; FIG. 13.
T1 construct: Native rCRISPA (rCRISP1) protein, purified with DANA present; from tissue; host or cells: rat epididymis
T1 sequence (P12020 20-246): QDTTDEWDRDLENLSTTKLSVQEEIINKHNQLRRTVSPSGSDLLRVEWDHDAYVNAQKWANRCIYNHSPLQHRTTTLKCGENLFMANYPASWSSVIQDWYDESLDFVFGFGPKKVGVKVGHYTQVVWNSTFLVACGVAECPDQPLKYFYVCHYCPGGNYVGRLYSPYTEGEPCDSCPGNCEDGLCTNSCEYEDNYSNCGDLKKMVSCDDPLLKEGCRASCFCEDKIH
Type: biochemical
Description: FIG. 13 is a graph showing rCRISPA (rCRISP1) protease activity (assay conditions: 5 μM substrate peptide, 1 μg enzyme, 100 mM NaCl, 25 mM Tris-Cl, pH 7.5). A. Cleaved peptides A04 (RGARARLG), N08 (RKRRAPLA), N12 (AKRAASQI), N17 (RKRRAVLT), B22 (APQRFGKK), B17 (RQRYGKRS), B23 (RVKRYRQS), H03 (RNKRAVQG). B. Cleaved peptides B20 (PQRFGRNT), C16 (RVLGLKAH), J21 (LRNRAQSG), H07 (RVKRQVRS), H11 (RRLLRAIP), N05 (RARRELAP), H01 (RKKRSTKK), O22 (GGVRGPRV), O16 (AATRRQAV), O23 (KNVAMQKG), G24 (RRKRSTRE), A09 (RMRRYADA), M02 (EKQRIIGG), H17 (NGLRADPM). C. Uncleaved peptides L16 (KTPRWGG), N10 (FYRADQPR), B11 (AAGVAPLS), J03 (PQLHSTGG), C01 (GPQGLLGA), K11 (VIPRSGGS), M07 (GLQRALEI), A01 (WQGGRRKF), H02 (RAKRSVHF), A10 (SAARPAPP), M16 (RSRREADL), A05 (SYRKVLGQ), M18 (VHRDMAAR), C23 (RDAQAHPG), M09 (GSQHIRAE), E19 (RLGREGVQ), D06 (ALAEAMKK).
Native rCRISPA (rCRISP1) protein, purified with DANA present (see Example 4), was screened for the ability to cleave 360 unique peptides using the commercially available peptide substrate set (catalog # PrSS-360-75, JPT Peptide Technologies, Springfield, Va.). […] The substrate peptides cleaved by rCRISPA in this assay are represented by blue and green traces noted in FIG. 13. Peptides that were not cleaved by rCRISPA are also noted in FIG. 13.

Substance | cleavage of substrate peptide by rCRISPA (rCRISP1) protease activity
SYRKVLGQ [A05, substrate peptide of the commercial peptide substrate set PrSS-360-75, JPT Peptide Technologies] | Uncleaved
FYRADQPR [N10, substrate peptide of the commercial peptide substrate set PrSS-360-75, JPT Peptide Technologies] | Uncleaved
SAARPAPP [A10, substrate peptide of the commercial peptide substrate set PrSS-360-75, JPT Peptide Technologies] | Uncleaved
RRKRSTRE [G24, substrate peptide of the commercial peptide substrate set PrSS-360-75, JPT Peptide Technologies] | Cleaved
KTPRWGG [L16, substrate peptide of the commercial peptide substrate set PrSS-360-75, JPT Peptide Technologies] | Uncleaved
RQRYGKRS [B17, substrate peptide of the commercial peptide substrate set PrSS-360-75, JPT Peptide Technologies] | Cleaved
RVLGLKAH [C16, substrate peptide of the commercial peptide substrate set PrSS-360-75, JPT Peptide Technologies] | Cleaved
RKRRAPLA [N08, substrate peptide of the commercial peptide substrate set PrSS-360-75, JPT Peptide Technologies] | Cleaved
RAKRSVHF [H02, substrate peptide of the commercial peptide substrate set PrSS-360-75, JPT Peptide Technologies] | Uncleaved
RSRREADL [M16, substrate peptide of the commercial peptide substrate set PrSS-360-75, JPT Peptide Technologies] | Uncleaved
RDAQAHPG [C23, substrate peptide of the commercial peptide substrate set PrSS-360-75, JPT Peptide Technologies] | Uncleaved
GSQHIRAE [M09, substrate peptide of the commercial peptide substrate set PrSS-360-75, JPT Peptide Technologies] | Uncleaved
RVKRYRQS [B23, substrate peptide of the commercial peptide substrate set PrSS-360-75, JPT Peptide Technologies] | Cleaved
NGLRADPM [H17, substrate peptide of the commercial peptide substrate set PrSS-360-75, JPT Peptide Technologies] | Cleaved
RLGREGVQ [E19, substrate peptide of the commercial peptide substrate set PrSS-360-75, JPT Peptide Technologies] | Uncleaved
VIPRSGGS [K11, substrate peptide of the commercial peptide substrate set PrSS-360-75, JPT Peptide Technologies] | Uncleaved
GGVRGPRV [O22, substrate peptide of the commercial peptide substrate set PrSS-360-75, JPT Peptide Technologies] | Cleaved
KNVAMQKG [O23, substrate peptide of the commercial peptide substrate set PrSS-360-75, JPT Peptide Technologies] | Cleaved

Substance | cleavage of substrate peptide by rCRISPA (rCRISP1) protease activity
AATRRQAV [O16, substrate peptide of the commercial peptide substrate set PrSS-360-75, JPT Peptide Technologies] | Cleaved
PQRFGRNT [B20, substrate peptide of the commercial peptide substrate set PrSS-360-75, JPT Peptide Technologies] | Cleaved
RKKRSTKK [H01, substrate peptide of the commercial peptide substrate set PrSS-360-75, JPT Peptide Technologies] | Cleaved
AAGVAPLS [B11, substrate peptide of the commercial peptide substrate set PrSS-360-75, JPT Peptide Technologies] | Uncleaved
LRNRAQSG [J21, substrate peptide of the commercial peptide substrate set PrSS-360-75, JPT Peptide Technologies] | Cleaved
VHRDMAAR [M18, substrate peptide of the commercial peptide substrate set PrSS-360-75, JPT Peptide Technologies] | Uncleaved
ALAEAMKK [D06, substrate peptide of the commercial peptide substrate set PrSS-360-75, JPT Peptide Technologies] | Uncleaved
RRLLRAIP [H11, substrate peptide of the commercial peptide substrate set PrSS-360-75, JPT Peptide Technologies] | Cleaved
WQGGRRKF [A01, substrate peptide of the commercial peptide substrate set PrSS-360-75, JPT Peptide Technologies] | Uncleaved
EKQRIIGG [M02, substrate peptide of the commercial peptide substrate set PrSS-360-75, JPT Peptide Technologies] | Cleaved
RARRELAP [N05, substrate peptide of the commercial peptide substrate set PrSS-360-75, JPT Peptide Technologies] | Cleaved
RMRRYADA [A09, substrate peptide of the commercial peptide substrate set PrSS-360-75, JPT Peptide Technologies] | Cleaved
GPQGLLGA [C01, substrate peptide of the commercial peptide substrate set PrSS-360-75, JPT Peptide Technologies] | Uncleaved
GLQRALEI [M07, substrate peptide of the commercial peptide substrate set PrSS-360-75, JPT Peptide Technologies] | Uncleaved
AKRAASQI [N12, substrate peptide of the commercial peptide substrate set PrSS-360-75, JPT Peptide Technologies] | Cleaved
RVKRQVRS [H07, substrate peptide of the commercial peptide substrate set PrSS-360-75, JPT Peptide Technologies] | Cleaved
RGARARLG [A04, substrate peptide of the commercial peptide substrate set PrSS-360-75, JPT Peptide Technologies] | Cleaved

— patent US20060275803A1, “Rat and mouse members of the CRISP family of genes” (Wyeth, priority 2005, published 2006)
